Experiment: label from the status in PepcDB records
With “MENFAEIVGIGPAGVISITGGGGKTSLMFHLARQLAYSGKRVLTTTTTKILAPSVEESRTLLISQDPQVILRHAKAHPGPGVHVSAAAGHIPHTEKLQGFPREAIRTFEDSGEFDWVVVEADGAARKPLKAPAAHEPVIPGNSTIVVALAGLEVLGRPLGEEMVFRSELAGELMQIPQGETITVPALARLLAHPSGGFKGAPPQARRFIFLNKADTPELQEKGGEVALQLKEIAPSVAEAVIVGQLRQEITLHRVYPRGELEHHHHHH” the protein production was “not failed”.
For “MENIKNPKNADDCSDSISKNSHQGVDDSLNQSRSYVCSFCIRGFSNAQALGGHMNIHRRDRAKLRQKLMEDNKDDVVAESDASEVVSLDLNEQQQQQGEALTCDDHDQYVDNDISPKQKLEFWVQESKLDTNDHGKVTEASIDGSSSSHHRDIEVLDLELRLGQSVVKKKTT”, the protein production was “failed”.
For “MENKRNVCSLGESSIKRHKSDLSFSSKERKDKVGERISALQQIVSPYGKFPCSFVQVLSAPYLQTVPDATQEELEQYSLRNRGLCLVPMENTVGVAQSNGADIWAPVKTPLSPAFSVTSQSPFR”, the protein production was “failed”.
For “MENQTPSQALISKGWKYFIIVGVIVALAGLGATSLPVMAGVTISTIIGTLLLITGLVQVYHTFRIHSWKEKLWYVLSALFYIVGALFILFKPLEGLMTITTIMIVIMIFNGLTRMIFGFTNRSLPGCGMVILSGLLSVVIGGYFFSLFDNPEFSLSLLGTFVGVSLIFEGMSFLFIGLRLRNASKA”, the protein production was “failed”.
For “MENRAHAFLAGLFTIGLAIFIALAVVWFNRDQTVRVPYEVVTRSTVNGLSPQAAVKYRGLDVGKVDSIRFDDRVPGQIIVRVLVDKDAPITTTTYGRLAYQGVTGLAYVQLDDRGYDGGKRAANPTRLETSDRRPARIAMEAGFLDELDKRGDQMLARIDQTLSSLSALFDDEHRQALMAAMQSFQGTMDSYNALARQAEPTMRRLPQIADNLDATLSATRRLSQSLSDPKGPLMGTLASAGNDLSSASQSMQAATNVLANETLPQLNGFAREARQAVRSFDHAVTDFNTRPQSVLFGPAPATPGPGETGFAAPQVSAAPSVAVPATARP”, the protein production was “failed”.
With “MENWVIQIIERLGYLGIAFLMFLDNVFPPIPSEIIMPSAGYTASRGQLQIIGVIVAGSLGSILAAAILYALGRQISHAALFRWTDRYGKYLLIQTKDLQIALEWFEKYGHRIVFFGRMIPAVRSLISIPAGMSRMPFWKFMLYSSLGTVIWTTFLAGVGFYFGENQAFMFSIMHRVGYLILAITLMVSVWWIYHKFYKKR” the protein production was “failed”.
For “MEPAILIITLICGMLVSRIGLPPLIGYLVAGFVLFVMGIEKESMPLLQELANLGVTLLLFAIGLKLDIRSLFKAEVWAGSSVHLILSILVFVPILKILGLLGLSQLTSLGIEQLTLLAFALSFSSTVFAVKVLEDKGDMQSLYGRVAIGILIMQDIFAVLFLTISKGDVPSVWAFALLLLPLAKPLIYKAFDRVGHGELLVLFGLVMALVVGAWLFESLGLKPDLGALVIGILLAGHKKASELAKSLFYFKELFLVAFFLTIGLNGLPTVSDIVLAALLVLLVPLKILLFVYILTRFKLRSRTSMLGSFNLGNFSEFGLIVAAVATSKGWLPSHWLVIIAVALSFSFLLAAPLNATVGSIYQRFQLRLVRLEKRPLHPEDRPIAIGNPRFLILGMGRIGSGAYDELRARFDGEILGIEHKQDLVDLHRAKGRNVVQGDASDTDFWEKLDKAPNLELVLLAMPHHAGNLFAVEQLNKLNYQGKISAIVQYGEDAASLRNSGVHSVYNLYEAAGAGFVDHVVHELLPDSETKAGTEAQEGTQKQTSSLV”, the protein production was “failed”.
With “MEPEEERIRYSQRLRGTMRRRYEDDGISDDEIEGKRTFDLEEKLHTNKYNANFVTFMEGKDFNVEYIQRGGLRDPLIFKNSDGLGIKMPDPDFTVNDVKMCVGSRRMVDVMDVNTQKGIEMTMAQWTRYYETPEEEREKLYNVISLEFSHTRLENMVQRPSTVDFIDWVDNMWPRHLKESQTESTNAILEMQYPKVQKYCLMSVRGCYTDFHVDFGGTSVWYHIHQGGKVFWLIPPTAHNLELYENWLLSGKQGDIFLGDRVSDCQRIELKQGYTFVIPSGWIHAVYTPTDTLVFGGNFLHSFNIPMQLKIYNIEDRTRVPNKFRYPFYYEMCWYVLERYVYCITNRSHLTKEFQKESLSMDLELNGLESGNGDEEAVDREPRRLSSRRSVLTSPVANGVNLDYDGLGKTCRSLPSLKKTLAGDSSSDCSRGSHNGQVWDPQCAPRKDRQVHLTHFELEGLRCLVDKLESLPLHKKCVPTGIEDEDALIADVKILLEELANSDPKLALTGVPIVQWPKRDKLKFPTRPKVRVPTIPITKPHTMKPAPRLTPVRPAAASPIVSGARRRRVRCRKCKACVQGECGVCHYCRDMKKFGGPGRMKQSCVLRQCLAPRLPHSVTCSLCGEVDQNEETQDFEKKLMECCICNEIVHPGCLQMDGEGLLNEELPNCWECPKCYQEDSSEKAQKRKMEESDEEAVQAKVLRPLRSCDEPLTPPPHSPTSMLQLIHDPVSPRGMVTRSSPGAGPSDHHSASRDERFKRRQLLRLQATERTMVREKENNPSGKKELSEVEKAKIRGSYLTVTLQRPTKELHGTSIVPKLQAITASSANLRHSPRVLVQHCPARTPQRGDEEGLGGEEEEEEEEEEEDDSAEEGGAARLNGRGSWAQDGDESWMQREVWMSVFRYLSRRELCECMRVCKTWYKWCCDKRLWTKIDLSRCKAIVPQALSGIIKRQPVSLDLSWTNISKKQLTWLVNRLPGLKDLLLAGCSWSAVSALSTSSCPLLRTLDLRWAVGIKDPQIRDLLTPPADKPGQDNRSKLRNMTDFRLAGLDITDATLRLIIRHMPLLSRLDLSHCSHLTDQSSNLLTAVGSSTRYSLTELNMAGCNKLTDQTLIYLRRIANVTLIDLRGCKQITRKACEHFISDLSINSLYCLSDEKLIQKIS” the protein production was “failed”.
In the case of “MEPGPEDYLVCAIAKPADKRLVVEKLLGKGARFFTLIHPSVIMGENVVIGQGAVICPSTVLSVDLRIGAFVTLNIGCLVGHDADIGDFSTLSGHCDITGGVVLEEEVFMGTHASVLPNVKVGKQAVVGAGSVAIRNVAAGITVFGVPAKRISGLEHHHHHH”, the protein production was “failed”.
In the case of “MEPIVFNGYHTLITATLVLLVGRFFVNKIKVLQDFNIPEAVAGGLIAAVAILCLYNWFGVSLQFEQSLQNAFMLAFFSSVGLSADFSRLKQGGMPLVIFLVVVSLYIIIQNVIGVGLASALGLDPMIGLLTGSITLTGGHGTGAAWAKIFSEEYNITGVMEMAMASATFGLVAGGLIGGPIARRLINKMKKDRSQQITKRVDTSAEQYDGSTFEDHDSIRYITASSTIETMALFAACLGFSSIIVNTFPDISLPQFVWALGFGVILRNVLTKVFKFDMFDRAIDVFGNASLSMFLAMALMSIKLWELTGLAGPMLIILVVQTLVMILYGYFVTYRVMGKDYDAAILTAGHCGFGLGATPTAVANMQSVTEKFGSSHKAFLIVPLVGAFFVDILNLAVITSFVDFLR”, the protein production was “failed”.
For “MEPNIYQLALAALFGASFVAVSGFFMHFKALNLVLERGKERKENPDGDEPQNPTLVRRRSQVRRKVNDQYGRSPASLPDATPFTDGGGGGGGDTGRSNGHVYVDEIPPGLPRLHTPSEGRASVHGASSIRKTGSFVRPISPKSPVASASAFESVEESDDDDNLTNSEGLDASYLQANGDNEMPADANEEQISMAASSMIRSHSVSGDLHGVQPDPIAADILRKEPEQETFVRLNVPLEVPTSDEVEAYKCLQECLELRKRYVFQETVAPWEKEVISDPSTPKPNTEPFAHYPQGKSDHCFEMQDGVVHVFANKDAKEDLFPVADATAFFTDLHHVLKVIAAGNIRTLCHRRLVLLEQKFNLHLMLNADKEFLAQKSAPHRDFYNVRKVDTHVHHSACMNQKHLLRFIKSKLRKEPDEVVIFRDGTYLTLREVFESLDLTGYDLNVDLLDVHADKSTFHRFDKFNLKYNPCGQSRLREIFLKQDNLIQGRFLGEITKQVFSDLEASKYQMAEYRISIYGRKMSEWDQLASWIVNNDLYSENVVWLIQLPRLYNIYKDMGIVTSFQNILDNIFIPLFEATVDPDSHPQLHVFLKQVVGFDLVDDESKPERRPTKHMPTPAQWTNAFNPAFSYYVYYCYANLYVLNKLRESKGMTTITLRPHSGEAGDIDHLAATFLTCHSIAHGINLRKSPVLQYLYYLAQIGLAMSPLSNNSLFLDYHRNPFPVFFLRGLNVSLSTDDPLQIHLTKEPLVEEYSIAASVWKLSACDLCEIARNSVYQSGFSHALKSHWIGKDYYKRGPDGNDIHKTNVPHIRVEFRDTIWKEEMQQVYLGKAVISDEVVP”, the protein production was “not failed”.
For “MEPTAPAPTPAATRNTESTAKIVYVLYLLSFAAGITTLIGVVMAYVNEGDAPEGLRTHYRFQIRTFWIGLLYAVVGGLLTIVGIGALILLFVAVWLVIRCVKGLKWLDQRQPVPNPATWLW”, the protein production was “failed”.
In the case of “MEPTDVSTGTGKVLLLDTKRYGYWKVCMTQIIRGQEDGFKITKPKANWTAEEKLQSKFNARAMKAIFNGVDEDEFKLIQGCKSAKQAWDTLQKSHEGTSSVKRTRLDHIATQFEYLKMEPDEKIVKFSSKISALANEAEVMGKTYKDQKLVKKLLRCLPPKFAAHKAVMRVAGNTDKISFVDLVGMLKLEEMKADQDKVKPSKNIAFNADQGSEQFQEIKDGMALLARNFGKALKRVEIDGERSRGRFSRSENDDLRKKKEIQCYECGGFGHIKPECPITKRKEMKCLKCKGVGHTKFECPNKSKLKEKSLISFSDSESDDEGEELLNFVAFMASSDSSKFMSDTDSDCDEELNPKDKYRVLYDSWVQLSKDKLKLVKEKLTLEAKLANVSTEDKQKLSGITVDGNSQDYYQKKLDCLQKECHRERDRTKLLERELNDKYKQIRMLNKGLESLDKILAMGRTDSQQRGLGYQGYTGKIKKEEGRVINFVSGGSTSETVVRQSYIEPKKQVKSHVEIKRESVVRTRMVGVICCDHCGKRFHMREQCYKFKEKVRTLWNLAKCFIEPSRFCTVWIKKKDLYGDMEAERYNHKLERMYEEEEMHYASCCNQVNKEMQDEARKKDDSFGST”, the protein production was “failed”.
With “MEQADVTSLIPILITLFLALTTRNVVVGLFAGVVSGVAMLEGTFVEKGPLDSFSALMKSYLLPQLTDSYNAGVILLLVFIGGFVALMEKSGGGVAFAKKVTQWVASKCQAQLSAWFGGVVIFFSDLGTPLIVGPVFRPLFDKLKVSRQKLAFIIDSTSSPVAILIPFIGWGVYIMGLIQKEFTALNVSMSDWDAFIGAIPYQFYAFLAIAIVPIVSFFKLDFGPMAKAEQLAEQGSDFGKEQESMNVFTHKNAKSSFVWAPLLVMLVVLCTILVPHGFPFQKVAGSTFRAALSSAYFFAAFTLIALMAFYGVRKLSDGIQVYLKGMSNMMSVAVILVLAWALSSVGKELGAAAYIAEQAQAGFPYWLLPAVAFLLAGIISFATGSSWGTFAIMMPLVIPTAVAIDAPLLVCIGAVLSGGLFGDHCSPISETTILSSTGAGCEQYEHFRTQLPYAVLNGVIALVCFLLAGVAASPVIVLAAIVAQFAIYYVLSKQKPTEQLESVSAE” the protein production was “failed”.
In the case of “MEQEEPCEAKETASSSIEPKTPNPNVPDSIPAIDSDSSLSEEEIVTEKDRGIVTLSPLCKQRIDSASISDCVLVSDDEIIESLYQNLLRVILSLQQIQSVAVVPEIWCFDGCKTPPPSSRNLDSNMVSDTCPGAPMKLTKISRNIDSGLRRKLF”, the protein production was “failed”.
For “MEQFLDNIKDLEVTTVVRAQEALDKKETATFFIGRKTCPYCRKFAGTLSGVVAETKAHIYFINSEEPSQLNDLQAFRSRYGIPTVPGFVHITDGQINVRCDSSMSAQEIKDFAGL”, the protein production was “not failed”.
In the case of “MEQKSKFSSATVFSGKLLIASLFILSGILLFARNMGWITAELFNIIVSWHSLLIILGIYSMIRRHFVGGIILVLVGVYFLLGGLSWLPENSQAMVWPLALIIAGVLFLFKSRHRGPWDDKQRMFRDHREWMKHGHHGHAGMNFTDNQQQCESEDGFLRSDNTFGAARHVVLDELFKGAVVRTSCGGTTIDLRHTHIAPGETYIDIDCSWGGVEIYVPSDWKVVFKCNTFFGGCDDKRWQNGNINKESVLVIRGRLSFGGLEVKD”, the protein production was “failed”.
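Further: failed if final PepcDB status was selected cloned or expressed and not failed if soluble or beyond.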
